Source: IntAct's records for PubMed 17357085

B1: Homeobox protein SIX5 (Homo sapiens), Q8N196 (parent)
chain: MATLPAEPSAGPAAGGEAVAAAAATEEEEEEARQLLQTLQAAEGEAAAAAGAGAGAAAAGAEGPGSPGVPGSPPEAASEPPTGLRFSPEQVACVCEALLQAGHAGRLSRFLGALPPAERLRGSDPVLRARALVAFQRGEYAELYRLLESRPFPAAHHAFLQDLYLRARYHEAERARGRALGAVDKYRLRKKFPLPKTIWDGEETVYCFKERSRAALKACYRGNRYPTPDEKRRLATLTGLSLTQVSNWFKNRRQRDRTGAGGGAPCKSESDGNPTTEDESSRSPEDLERGAAPVSAEAAAQGSIFLAGTGPPAPCPASSSILVNGSFLAASGSPAVLLNGGPVIINGLALGEASSLGPLLLTGGGGAPPPQPSPQGASETKTSLVLDPQTGEVRLEEAQSEAPETKGAQVAAPGPALGEEVLGPLAQVVPGPPTAATFPLPPGPVPAVAAPQVVPLSPPPGYPTGLSPTSPLLNLPQVVPTSQVVTLPQAVGPLQLLAAGPGSPVKVAAAAGPANVHLINSGVGVTALQLPSATAPGNFLLANPVSGSPIVTGVALQQGKIILTATFPTSMLVSQVLPPAPGLALPLKPETAISVPEGGLPVAPSPALPEAHALGTLSAQQPPPAAATTSSTSLPFSPDSPGLLPNFPAPPPEGLMLSPAAVPVWSAGLELSAGTEGLLEAEKGLGTQAPHTVLRLPDPDPEGLLLGATAGGEVDEGLEAEAKVLTQLQSVPVEEPLEL
partner: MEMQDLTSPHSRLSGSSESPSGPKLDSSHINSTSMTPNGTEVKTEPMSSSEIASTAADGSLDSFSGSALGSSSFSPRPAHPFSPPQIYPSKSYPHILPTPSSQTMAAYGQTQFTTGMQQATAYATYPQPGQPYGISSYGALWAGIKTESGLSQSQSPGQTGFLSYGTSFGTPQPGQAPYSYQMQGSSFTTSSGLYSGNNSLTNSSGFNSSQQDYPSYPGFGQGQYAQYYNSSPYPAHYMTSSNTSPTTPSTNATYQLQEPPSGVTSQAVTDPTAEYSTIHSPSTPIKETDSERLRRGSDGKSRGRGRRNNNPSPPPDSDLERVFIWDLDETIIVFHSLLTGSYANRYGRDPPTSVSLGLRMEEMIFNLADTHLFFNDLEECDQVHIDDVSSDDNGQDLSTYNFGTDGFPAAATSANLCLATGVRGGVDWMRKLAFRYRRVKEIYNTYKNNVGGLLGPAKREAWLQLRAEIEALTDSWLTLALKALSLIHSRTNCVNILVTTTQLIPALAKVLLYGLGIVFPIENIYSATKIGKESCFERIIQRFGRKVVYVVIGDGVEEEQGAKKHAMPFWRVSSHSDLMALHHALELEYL

Variants of: B1
Details: with eya1_mouse Eya1, P97767

Row | Variant | effect of a mutation on the interaction
1 | A158T | decreasing interaction
2 | T552M | decreasing interaction
